The nanobody polyreactivity screen of Harvey et al. (2022)

Assay: yeast display, Sf9 membrane polyspecificity reagent, FACS + sequencing; frameworks hold sequencing errors
Procedure, shortened: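 Nanobodies came from a synthetic yeast display library in Saccharomyces cerevisiae BJ5465, induced with galactose for 36–48 hours and stained for 1 hour at 4 °C with 10% biotinylated, detergent-solubilized Sf9 membrane reagent. Cells were enriched on streptavidin microbeads and then FACS-sorted, with low and high (top ~1%) gates set on anti-HA fluorescence for expression and streptavidin fluorescence for reagent binding. Each polyreactivity label reflects the gate a clone came from. Genes were amplified by colony PCR, sequenced by MiSeq 2 × 250 and filtered by CDR length.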

Question: With “KVQLVESGGGLVQAGGSLRISCAASGSNFGRYAMGWYRQAPGKERELVAAISARGGSTYYADSVKGRFTISRDNAKNTVYLQMNSLKPEDTAFYYCNVLVRYSDQSSDSWGQGTQVTVSS” as the sequence, how does the “polyreactivity (PSR sort gate)” value read?
Answer: high polyreactivity

Question: For “QVQIVESRGCLVQAGGSLRLICAASGSIFLANAMGWYRQAPRKEREFVPAITSSGGSTYYADSVKGRFTISRDNAKNSVYLQMNSLKPEDTAVYYCNVRPRYRWRSTPYGYWGQGTQVTVSS”, which “polyreactivity (PSR sort gate)” value is on record?
Answer: high polyreactivity

Question: For “QVQLVESGGGLVQAGGSLRLSCAASGSIFTYTMGWYRQAPGKERELVAVISRSGGRTYYADSVKGRFTISRDNAKNTVYLQMNSLKPEDTAVYYCATDGHNGYYGRYDYWGQGTQVTVSS”, which “polyreactivity (PSR sort gate)” value is on record?
Answer: high polyreactivity

Question: Which “polyreactivity (PSR sort gate)” value does the source give for “QVQLVESGGGLVQAGGSLRLSCAASGSIFWINAMGWCRQAPGKEREFVADIDVSGGSTYYADSVKGRFTISRDNAKNTVYLQMNSLKPEDTAVYYCAADDYWAYLYYKTSEYYYWGQGTQVTVSS” here?
Answer: low polyreactivity

Question: For “QVQLVESGGGLVQAGGSLRLSCAASGRIFAQYAMGWYRQAPGKERELVAAISRSGGTTYYADSVKGRFTISRDNAKNTVYLQMNSLKPDDTAVYYCAASLRYLYYYWGQGTQVTVSS”, which “polyreactivity (PSR sort gate)” value is on record?
Answer: high polyreactivity

Question: With “QVQLQESDGGLVQAGGSLRLSCAASGSISPQYYMGWYRQEPGKEREFVAISKGTTTYYADSVKGRLTISRVNAKNTVYLQMNSLKPEDTAVYCCAAGRWLQKVHAYWDQGTQVTVSS” as the sequence, how does the “polyreactivity (PSR sort gate)” value read?
Answer: low polyreactivity

Question: For “QVQLVESGGGLVQAGGSLRLSCAASGSTFWIYAMGWYRQAPGKERELVAAITLRSGSTYYADSVKGRFTISRDNAKNTVYLQMYSLKPEDTAVYYCATDSWGVDRPNYNYWGQGTQVTVSS”, which “polyreactivity (PSR sort gate)” value is on record?
Answer: low polyreactivity

Question: Which “polyreactivity (PSR sort gate)” value does the source give for “QVQLVESGGGLVQAGGSLRLSCAASGSIFSGNAMGWYRQAPGKERELVAAITTRSGSTYYADSVKGRFTISRDNAKNTVYLQMNSLKPEDTAVYYCAATGYRYRRIYGFDYWGQGTQVTVSS” here?
Answer: high polyreactivity

Question: Which “polyreactivity (PSR sort gate)” value does the source give for “QVQLVESGGGLVQSGGSLRLSCAASGYIIPRYAMGWYIHAPGKERELVAGITTGVRTNYADSVKGRFTISRDNAKNSVYLQMNSLKPGDTAVYYCNARYFRYRYNRYDYWGQGTQVTVSS” here?
Answer: high polyreactivity

Question: With “QVQLVESGGGLVQAGGSLRLSCAASGRIFGDNAMGWYRQAPGKERELVATISRGGTTNYADSVKGRFTISRDNAKNTVYLQMNSLKPEDTAVYYCNARSGGHGYSRYQTYLRYDYWGQGTQVTVSS” as the sequence, how does the “polyreactivity (PSR sort gate)” value read?
Answer: low polyreactivity

Question: For “QVQLVESGGGLVHAGGSLRLSCAASGFTFRSYTMGWYRQAHGKERELVAAITSRGTSTYYADSVKGRFTISRDNAKNTVYLQMNSLKPEDTAVYYCAAPIYNGYASWQVYYWGQGTQVTVSS”, which “polyreactivity (PSR sort gate)” value is on record?
Answer: high polyreactivity

Question: For “QVQLVESGGGLVQAGGSLRLSCAASGRIFGYYAMGWYRQAPGKERELVAAISYRGSSTYYADSVKGRFTISRDNAKNTVYLQMNSLKPEDTAVYYCAAKGHGRTYDYWGQGTQVTVSS”, which “polyreactivity (PSR sort gate)” value is on record?
Answer: high polyreactivity

Question: For “QVQLVESGGGLVQAGGSLRLICAASGMTFYSYAMGWYRQAPGKERELVAAISATGGRTYYADSEKGRFTISRDNAKNTVYLQMNSLKPEDTEVYYCAAKSSYEYGYWGQGTQVTVSS”, which “polyreactivity (PSR sort gate)” value is on record?
Answer: high polyreactivity

Question: With “QGHLVESLGGLVQAGGSLRLSCAASGRIIGVYAMGWSRQAPGKERELVAAISEGGGSTNYADSVKGRFTISRDNSKNTVYLQMNSLKPEDTAVYYCNADADEYRDYHDYDYWGQGTQVTVSS” as the sequence, how does the “polyreactivity (PSR sort gate)” value read?
Answer: low polyreactivity

Question: With “QVQLVESVGGLVQAGGSLRLSCAASGIFVDNAMGWYRQAPGTETELVAPITSSTDSTYYADSVKGRFTISRDNAKNTVALQMNSLKPEDTAVYYCAVARPGGFYFLVHYGYGYWGQGTQVTVSS” as the sequence, how does the “polyreactivity (PSR sort gate)” value read?
Answer: low polyreactivity

Question: For “QVQLVESGGGLVQAGGSLRLSCAASGRTFYKYAMGWYRPAPGKERELVAAISGSGGGTYYADSVKGRFTISRDNAKNTVYLQMNSLKPEDTAVYYCAAVYLYYAYAFDYWGQGTHVTVSS”, which “polyreactivity (PSR sort gate)” value is on record?
Answer: high polyreactivity

Question: For “QVQLVESGGGLVQAGGSLRLICAASGRTFSSYSMGWYRQAPGKERELVAAISRSGARTYYADSVKGRFTISRDNAKNTFYVQMNSLKPEDTAVYSCAGVTVAGYDYWGQGTEVTVSS”, which “polyreactivity (PSR sort gate)” value is on record?
Answer: high polyreactivity

Question: For “QVQLVESGGGLVQAGGSLRLSCAASGRIFVTNAMGWYRQAPGKERELVAAISYRGGRTYYADSVKGRFTISRDNAKNTVYLQMNSLKPEDTAVYYCNAVTRGPFDYWGQGTQVTVSS”, which “polyreactivity (PSR sort gate)” value is on record?
Answer: high polyreactivity

Question: Which “polyreactivity (PSR sort gate)” value does the source give for “QVQLVESGGGLVQAGGSLRLSCAASGRIFGDYAMGWYRQAPGKERELVAAINSSGTSTNYADSVKGRFTISRDNAKNTVYLQMNSLKPEDTAVYYCNAEGTYRPDYDSWGQGTQVTVSS” here?
Answer: low polyreactivity

Question: Which “polyreactivity (PSR sort gate)” value does the source give for “QVQLVESGGGLVQAGGSLRLSCAASGFIFRYYAMGWYRQAPGKERELVAAITRGGSTYYADSVKGRFTISRDNAKNTVYLQMNSLKPEDTAVYDCAARLYTQYYYWGQGTQVTVSS” here?
Answer: high polyreactivity

Question: With “QVQLVESGGGLVQAGGSLRLSCAASGSTFDYYPMGWYRQAPGKERELVAGIDSAGSTNYADSVKGRFTISRDNAKNTVYLQMNSLKTGRYRGLYCNVGKTITTYAFPTFDYWGQGTQVTVSS” as the sequence, how does the “polyreactivity (PSR sort gate)” value read?
Answer: low polyreactivity

Question: For “QVQLVESGGGLVQAGGSLRLSCAASGITFWFYAMGWYRQAPGKERELVADITSGGSTYYADSVKGLFTISRDNAKNTVYLQMNSLKPEDTAVYYCAADSWDSLAGLWDWNGPYYYWGQGTQVTVSS”, which “polyreactivity (PSR sort gate)” value is on record?
Answer: low polyreactivity

Question: For “QVQLVESGGGLVQAGGSLRLSCAASGSTLAVYAMGWYRQAPGKEREFFAAISWSGVSTYYADSVKGRFTISRDNAKNTVYLQMNSLKPEDTAVYYCAAKRVRALYGGSEGGYWGQGTQVTVSS”, which “polyreactivity (PSR sort gate)” value is on record?
Answer: low polyreactivity

Question: Which “polyreactivity (PSR sort gate)” value does the source give for “QVQLVESGGGLVQAGGSLRLSCAASGRTFRTNTMGWYRQAPGKERELVAAIRYIGGSTYYADSVKGRFTISRDNAKNTFYLLMNSLKPEDTAVYYCAAYRYGSRYGYEYWGQGTQVTVSS” here?
Answer: high polyreactivity

Question: With “QVQLEESGGGLVQAGGSLRLRCAASGRTFGYYAMGWYRQAPGKERQLVASITSGGRTYYADSVKGRFTISRDNSKNTVYLQMNSLKPEDTAVFYCAADRFGIGGKSGNDYWGQGTQVTVSS” as the sequence, how does the “polyreactivity (PSR sort gate)” value read?
Answer: high polyreactivity

Question: With “QVQLVESGGGLVQAGGSLRLSSAASGNTFDSKAMGWYRQAPGKERELVAGISQGDGSTYADSVKGRFTISRDNAKNTVYFQMNSLKPEDTAVYYCAADRDYIMDYWGQGTQVTVSS” as the sequence, how does the “polyreactivity (PSR sort gate)” value read?
Answer: high polyreactivity

Question: For “QVQLVESGGGLVQAGGSLRLSCAASGYTLSVNAMGWYRQAPGKERELVATIDFGGGSTYYADSVKGRFTISRDNAKNTVYLQMNSLKPEDTAVYYCNTEWTSLSKSSLGGRYDHWGQGTQVTVSS”, which “polyreactivity (PSR sort gate)” value is on record?
Answer: low polyreactivity

Question: Which “polyreactivity (PSR sort gate)” value does the source give for “QVQLVESGGGLVQAGGSLRLSCAASGSTFGIYVMGWYRQAPGKERELVATISSSGGRTYYADSVKGRFTISRDNAKNTVYLQMNSLKPEDTAVYYCAADGYIDISPGYYYTYDYWGQGTQVTVSS” here?
Answer: low polyreactivity

Question: With “QVQLVESGGGLVQAGGSLRLSCAASGFTLYYYAMGWYRQAPGKERELVAAISTRGGRTYYADSVKGRFTISRDNAKNTVYLQINSLKPEDTAVYYCAAAFSLKSLNTRWTWSRYYYWGQGTQVTVSS” as the sequence, how does the “polyreactivity (PSR sort gate)” value read?
Answer: high polyreactivity

Question: For “QVQLVESGGGLVQAGGSLRLSCAASGSTFGGYAMGWYRQAPGKERELVAGITISVGSTYYADSVKGRFTISRDNAKNTVYLQMNSLKPEDTAVYYCAADGLSWYNYWGQGTQVTVSS”, which “polyreactivity (PSR sort gate)” value is on record?
Answer: high polyreactivity

Question: With “QVQLVESGGGLVQAGGSLRLSCAASGSNFSDNAMGWYRQAPRKERELVAAITSGGSTYYADSVKGRFTISRDKAKNTVYLQMNSLKPEDSAVYYCAADYWGQGTQVTVSS” as the sequence, how does the “polyreactivity (PSR sort gate)” value read?
Answer: low polyreactivity

Question: For “QVQLVESGGGLVQAGGSLRLSCAASGFTFRAYTMGWYRQAPGKERELVAAITYSGGPTYYADSVKGRFTISRDNAKNTVYLQMNSLKPEDTAVYYCAKRGWALSEYYYWGQGTQVTVSS”, which “polyreactivity (PSR sort gate)” value is on record?
Answer: high polyreactivity

Question: With “QVQLVESGGGLVQAGGSLRLSCAASGFIYVYAMGWYRQPPRKERELVAAITATGDSTYYADSVKGRFTISRDNAKNTVYLQMNSLKPEDTAVYYCAAEWHYFVTMYYWGQGTQVTVSS” as the sequence, how does the “polyreactivity (PSR sort gate)” value read?
Answer: low polyreactivity

Question: Which “polyreactivity (PSR sort gate)” value does the source give for “QVQLVESGGGLVQAGGSLRLSCAASGYIFVHYVMGWYRQAPGKERELVAAISSSGDRTYYADSVKGRFTISRDNAKNTVYLQMNSMKPEDTAVYYCAARYSDTSTNRYYYWGQGTQVTVSS” here?
Answer: high polyreactivity

Question: With “QVQLVESGGGLVQAGGSLRLSCAASGSIFYTYAMGWYRQAPGKERELVARIDYSTGNTYYADSVKGRFTISRDNAKNTVYLQMNSLKPEDTAVYYCAARDWSSFTGAYDYWGQGTQVTVSS” as the sequence, how does the “polyreactivity (PSR sort gate)” value read?
Answer: high polyreactivity

Question: Which “polyreactivity (PSR sort gate)” value does the source give for “QVQLVESGGGLVQAGGSLRLSCAASGSIFENNVMGWYRQAPGKERELVAVISWNGGRTYYADSVKGRFTISRDNAKNTVYLQMNSLKPEDTAVYYCNAQGYFWSESIEYDYWGQGTQVTVSS” here?
Answer: low polyreactivity

Question: For “QVQLVESGGGLVQAGGSLRLSCAASGRIFYVYTMGWYRQAPGKERELVASIRRSGGSTYYADSVKGRFTISRDNAKNTVYLQMNSLKPEDTAVYYCAARYNSAANDKRYYYWGQGTQVTVSS”, which “polyreactivity (PSR sort gate)” value is on record?
Answer: high polyreactivity

Question: For “QVQLVESGGGLVQAGGSLRLSCAASGSIFWTNAMGCYIQAPGKERELVAAITGGGTTYYADSVKGRFTISRDNAKNTVYLQMNSLKPEDTAVVYTVSSAQYDYWGQGTQVTVSS”, which “polyreactivity (PSR sort gate)” value is on record?
Answer: low polyreactivity

Question: For “QVQLVESGGGLVQAGGSLRLSCAASGSTFVKNTMGWYRQAPGKERELVAAIRSSGGSTYYADSVKGRFTISRDNAKNTVYLQMNSLKPEDTAVYYCAAGRGPEGTDDSWGQGTQVTVSS”, which “polyreactivity (PSR sort gate)” value is on record?
Answer: high polyreactivity

Question: With “QVQLVESGGGLVQAGGSLRLSCAASGSFFASYSMGWYRQAPAKERELVAAITYSGSRTYYADSVKGRFTISRDNAKNTVYLQMNSLKPEDSAVYYCNADYYWYPYEDDYWGQGTQVTVSS” as the sequence, how does the “polyreactivity (PSR sort gate)” value read?
Answer: low polyreactivity

Question: With “QVQLVESVGGLDQAGGSLRLSCAASALIFPRYDMGSYRQAPGKERELDAAITSGGGTYNADSVKGRFTISRDNAKITVYLQMNSLKPEDTAVYYCAAGPVFGGGGYDYWGQGTQVTVSS” as the sequence, how does the “polyreactivity (PSR sort gate)” value read?
Answer: low polyreactivity

Question: With “QVQLVESGGGLVQAGGSLRLSCAASGFIFDDNAMGWNRQAHGKERELVAAITSGGGSTYYADSVKGRFTISRDNAKNTVYLQLNSLKPEDTAVYYCNAVPSQHDEFDYWGQGTQVSVSS” as the sequence, how does the “polyreactivity (PSR sort gate)” value read?
Answer: low polyreactivity

Question: With “QVQLVESGGGLVQAGGSLRLSCAASGRTFRGYSMGWYRQAPGKERELVAAISSSGGRTYYADSVKGRFTISRDNAKNTVYLQMNSLKPEDTAVYYCNAYYWSATWYFAAWDYYYWGQGTQVTVSS” as the sequence, how does the “polyreactivity (PSR sort gate)” value read?
Answer: high polyreactivity
